Test results as given in doi:10.1101/786475 (bioRxiv, 2019).

Columns and labels:
Assay in all cases: peptide or protein array
[1] = target: T1, Eno2p (spotted on the yeast ProtoArray) (S. cerevisiae, UniProt P00925 1-437)
T1 sequence (looked up): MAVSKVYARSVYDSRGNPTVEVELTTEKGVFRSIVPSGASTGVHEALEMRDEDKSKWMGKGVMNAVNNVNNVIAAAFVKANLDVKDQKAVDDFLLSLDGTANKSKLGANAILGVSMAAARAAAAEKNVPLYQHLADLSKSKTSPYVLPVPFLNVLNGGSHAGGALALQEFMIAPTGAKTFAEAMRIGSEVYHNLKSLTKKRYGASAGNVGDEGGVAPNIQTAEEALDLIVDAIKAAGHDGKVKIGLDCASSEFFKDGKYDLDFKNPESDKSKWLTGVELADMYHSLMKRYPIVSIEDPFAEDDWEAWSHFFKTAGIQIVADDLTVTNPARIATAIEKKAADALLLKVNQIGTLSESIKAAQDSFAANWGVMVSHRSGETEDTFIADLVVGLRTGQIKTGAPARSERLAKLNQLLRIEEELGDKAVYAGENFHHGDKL

[2] = target: T2, Drs1p (spotted on the yeast ProtoArray) (S. cerevisiae, UniProt P32892 1-752)
T2 sequence (looked up): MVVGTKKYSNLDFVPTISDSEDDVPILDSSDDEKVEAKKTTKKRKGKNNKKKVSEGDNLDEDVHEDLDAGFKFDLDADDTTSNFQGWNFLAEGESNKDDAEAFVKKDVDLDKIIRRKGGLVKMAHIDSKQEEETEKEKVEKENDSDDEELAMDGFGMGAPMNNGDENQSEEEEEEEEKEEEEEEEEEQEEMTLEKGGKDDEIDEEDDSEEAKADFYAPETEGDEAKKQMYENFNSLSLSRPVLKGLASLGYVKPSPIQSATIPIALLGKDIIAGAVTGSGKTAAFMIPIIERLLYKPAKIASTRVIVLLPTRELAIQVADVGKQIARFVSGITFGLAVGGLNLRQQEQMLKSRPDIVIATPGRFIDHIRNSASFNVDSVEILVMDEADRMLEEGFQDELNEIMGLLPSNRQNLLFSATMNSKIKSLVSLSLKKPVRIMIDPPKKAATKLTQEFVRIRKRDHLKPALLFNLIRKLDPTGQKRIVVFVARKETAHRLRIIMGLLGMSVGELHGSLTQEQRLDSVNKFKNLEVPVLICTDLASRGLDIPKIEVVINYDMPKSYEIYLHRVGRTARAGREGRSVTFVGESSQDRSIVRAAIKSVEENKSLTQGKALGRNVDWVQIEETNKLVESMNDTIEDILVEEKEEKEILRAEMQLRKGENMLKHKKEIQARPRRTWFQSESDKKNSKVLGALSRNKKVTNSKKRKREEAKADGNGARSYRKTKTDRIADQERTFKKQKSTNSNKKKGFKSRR

[3] = target: Frd1p (spotted on the yeast ProtoArray) (S. cerevisiae, UniProt P32614 1-470)
[4] = target: T3, Ski8p (spotted on the yeast ProtoArray) (S. cerevisiae, UniProt Q02793 1-397)
T3 sequence (looked up): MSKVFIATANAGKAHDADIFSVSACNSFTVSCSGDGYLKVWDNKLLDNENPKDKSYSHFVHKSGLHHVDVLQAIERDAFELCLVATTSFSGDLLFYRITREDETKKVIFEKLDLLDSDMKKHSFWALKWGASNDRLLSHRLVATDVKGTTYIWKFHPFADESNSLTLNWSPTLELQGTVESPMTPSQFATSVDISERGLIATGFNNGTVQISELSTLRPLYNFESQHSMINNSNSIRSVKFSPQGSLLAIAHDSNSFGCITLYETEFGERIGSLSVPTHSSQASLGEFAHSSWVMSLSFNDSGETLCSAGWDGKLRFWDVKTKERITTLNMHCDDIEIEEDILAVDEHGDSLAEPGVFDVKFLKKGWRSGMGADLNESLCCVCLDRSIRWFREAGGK

[5] = target: T4, Emi2p (spotted on the yeast ProtoArray) (S. cerevisiae, UniProt Q04409 1-500)
T4 sequence (looked up): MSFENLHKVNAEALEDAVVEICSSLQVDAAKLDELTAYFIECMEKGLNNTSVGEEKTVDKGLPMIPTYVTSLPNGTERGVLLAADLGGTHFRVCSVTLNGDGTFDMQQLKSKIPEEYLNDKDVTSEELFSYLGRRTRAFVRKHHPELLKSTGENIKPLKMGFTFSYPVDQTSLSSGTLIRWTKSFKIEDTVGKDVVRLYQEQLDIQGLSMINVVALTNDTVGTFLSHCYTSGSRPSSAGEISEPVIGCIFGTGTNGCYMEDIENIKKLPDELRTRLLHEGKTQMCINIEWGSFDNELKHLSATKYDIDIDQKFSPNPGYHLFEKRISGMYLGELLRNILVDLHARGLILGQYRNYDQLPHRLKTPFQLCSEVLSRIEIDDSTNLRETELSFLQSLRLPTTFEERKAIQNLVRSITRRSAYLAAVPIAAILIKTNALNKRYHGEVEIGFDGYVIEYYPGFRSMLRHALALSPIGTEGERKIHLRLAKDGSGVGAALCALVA

Measured: binding result

Sequence of Frd1p (spotted on the yeast ProtoArray) (P32614 whole entry): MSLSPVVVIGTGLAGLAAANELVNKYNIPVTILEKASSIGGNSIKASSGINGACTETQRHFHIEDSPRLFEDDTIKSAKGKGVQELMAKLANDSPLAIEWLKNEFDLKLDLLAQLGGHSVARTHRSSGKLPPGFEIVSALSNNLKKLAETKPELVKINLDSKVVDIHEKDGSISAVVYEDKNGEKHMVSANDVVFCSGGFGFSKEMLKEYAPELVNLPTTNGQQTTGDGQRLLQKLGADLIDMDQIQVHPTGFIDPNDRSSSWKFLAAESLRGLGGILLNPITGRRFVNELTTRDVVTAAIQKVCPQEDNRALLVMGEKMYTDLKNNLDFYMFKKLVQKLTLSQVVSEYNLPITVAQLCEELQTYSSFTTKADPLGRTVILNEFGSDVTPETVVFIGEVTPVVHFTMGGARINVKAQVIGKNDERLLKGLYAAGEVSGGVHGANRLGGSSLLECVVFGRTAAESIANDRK

B1: purified and biotinylated cytoplasmic domain of the Msb2p protein (HIS-Msb2p^CYT) (domain or fragment, S. cerevisiae, UniProt P32334 1207-1306, looked up)
chain: AFKYIIRRRIQSQEIIKNPEISSISSSEFGGEKNYNNEKRMSVQESITQSMRIQNWMDDSYYGHGLTNNDSTPTRHNTSSSIPKISRPIASQNSLGWNEV
modifications: biotinylated in vitro (sites not given)
binds: all assays above
